Measured values from patent publication US20260258390.
Substitutions are numbered along the chain they refer to. Names and notes keep the numbering of the source.

T1: succinyl-L-Ala-L-Ala-L-Pro-L-Phe-p-nitroanilide (SEQ ID NO: 1)
T1 chain: AAPF

B1: N74D/S99G/V102W/S126G/N198A/N212S/T254P (variant of sequence SEQ ID NO: 5) (protein)
chain: AQSVPWGISRVQAPAAHNRGLTGSGVKVAVLDTGISTHPDLNIRGGASFVPGEPSTQDGNGHGTHVAGTIAALDNSIGVLGVAPSAELYAVKVLGASGGGSWSSIAQGLEWAGNNGMHVANLSLGGPSPSATLEQAVNSATSRGVLVVAASGNSGAGSISYPARYANAMAVGATDQNNNRASFSQYGAGLDIVAPGVAVQSTYPGSTYASLSGTSMATPHVAGAAALVKQKNPSWSNVQIRNHLKNTATSLGSPNLYGSGLVNAEAATR
B2: wild-type subtilisin of Bacillus lentus (SEQ ID NO: 2) (protein)
chain: B1 chain with D74N, G99S, W102V, G126S, A198N, S212N, P254T
B3: N74D/S101A/V102W (control variant of WO1995010591; sequence SEQ ID NO: 3) (protein)
chain: B1 chain with G99S, S101A, G126S, A198N, S212N, P254T
B4: N74D/S99G/V102W/S126G/D191E/N198G/N212S/T254P (variant of sequence SEQ ID NO: 4) (protein)
chain: B1 chain with D191E, A198G
B5: N74D/S97D/S126G/P204I/T254P/S259N (variant of sequence SEQ ID NO: 6) (protein)
chain: B1 chain with S97D, G99S, W102V, A198N, P204I, S212N, S259N

Target: T1, succinyl-L-Ala-L-Ala-L-Pro-L-Phe-p-nitro …

Row | Protein | Km pH 8.6 (mM) | Km pH 10 (mM) | kcat pH 8.6 (% of wild-type) (% of wild-type) | kcat pH 10 (% half-life of wild-type) (% of wild-type) | kcat/Km pH 8.6 (% of wild-type) (% of wild-type) | kcat/Km pH 10 (% wild-type)
1 | B1 | 0.05 | 0.09 | 503 | 723 | 6360 | 10800
2 | B2 | 0.63 | 1.34 | 100 | 100 | 100 | 100
3 | B3 | 0.29 | 0.33 | 638 | 554 | 1390 | 2260
4 | B4 | 0.11 | 0.19 | 579 | 719 | 3330 | 5100
5 | B5 | 0.66 | 0.52 | 55 | 37 | 51 | 97
